Test results reported in PMC1762433.

Target: FBXW8 (UniProt Q8N3Y1)
Experiment: HA IP, V5 immunoblot
Settings: reference: HA-cyclin D1 wild type; sites T286

## cyclin D1 (from UniProt P24385) HA-cyclin D1 T286A
  binding against the reference: weaker
